According to the RNAGym collection of RNA variant scans (doi:10.7554/elife.80360):

B1: Hammerhead Ribozyme (parent)
chain: ACCGGAUGUGCUUUCCGGUCUGAUGAGUCCGUGAGGACGAAACAG

Variants of: B1
Assay: self-cleavage, relative activity (ratio to wild type); higher = more cleavage; co-transcriptional
U7A G25U showed a self-cleavage of 0.281. U7A G25A showed a self-cleavage of 0.32. For U7A G25C, the self-cleavage was 0.279. For U7A U32G, the self-cleavage was 1.07. Variant U7A U32A has a self-cleavage of 1.38. For U7A U32C, the self-cleavage was 0.797. In the case of U7C, the self-cleavage is reported as 1.05. Variant U7C C11G has a self-cleavage of 1.37. U7C C11A showed a self-cleavage of 1.37. With U7C C11U the self-cleavage was 0.433. With U7A G8C the self-cleavage was 1.21. Variant U7A G8U has a self-cleavage of 1.52. Variant U7A G8A has a self-cleavage of 1.23. Variant U7A G39C has a self-cleavage of 0.321. Variant U7A G39A has a self-cleavage of 0.27. U7A G39U showed a self-cleavage of 0.289. Variant U7C A37G has a self-cleavage of 0.771. Work on U7C A37U yielded a self-cleavage of 0.621. Variant U7C A37C has a self-cleavage of 0.828. Work on U7A A40G yielded a self-cleavage of 0.298. Work on U7A A40U yielded a self-cleavage of 0.244. U7A A40C gave a self-cleavage of 0.261. Work on U7C C29G yielded a self-cleavage of 0.514. With U7C C29U the self-cleavage was 0.992. U7C C29A showed a self-cleavage of 0.685. For U7C C38G, the self-cleavage was 0.533. With U7C C38U the self-cleavage was 0.929. Variant U7C C38A has a self-cleavage of 0.702. With U7A A42C the self-cleavage was 0.358. With U7A A42U the self-cleavage was 0.257. With U7A A42G the self-cleavage was 0.216. With U7C A40U the self-cleavage was 0.373. U7C A40G gave a self-cleavage of 0.382. U7C A40C gave a self-cleavage of 0.418. In the case of U7A U12G, the self-cleavage is reported as 1.33. For U7A U12C, the self-cleavage was 0.79. For U7A U12A, the self-cleavage was 1.55. U7A A26C showed a self-cleavage of 0.311. In the case of U7A A26U, the self-cleavage is reported as 0.556. In the case of U7A A26G, the self-cleavage is reported as 0.221. In the case of U7A U21G, the self-cleavage is reported as 0.319. Variant U7A U21C has a self-cleavage of 0.628. U7A U21A showed a self-cleavage of 0.359. For U7A G18A, the self-cleavage was 0.539. U7A G18C showed a self-cleavage of 0.365. Variant U7A G18U has a self-cleavage of 0.569. Work on U7A C11A yielded a self-cleavage of 1.55. U7A C11G showed a self-cleavage of 1.52. With U7A C11U the self-cleavage was 1.4. In the case of U7C A42U, the self-cleavage is reported as 0.312. U7C A42C gave a self-cleavage of 0.3. U7C A42G showed a self-cleavage of 0.306. For U7A G35U, the self-cleavage was 0.751. With U7A G35A the self-cleavage was 0.687. In the case of U7A G35C, the self-cleavage is reported as 0.707. For U7C C16U, the self-cleavage was 1.06. For U7C C16G, the self-cleavage was 0.487. Variant U7C C16A has a self-cleavage of 0.738. U7A A23G gave a self-cleavage of 0.308. Variant U7A A23U has a self-cleavage of 0.322. Work on U7A U28C yielded a self-cleavage of 1.26. U7A U28A showed a self-cleavage of 0.77. Variant U7A U28G has a self-cleavage of 0.758. With U7A G27C the self-cleavage was 0.449. In the case of U7A G27A, the self-cleavage is reported as 0.66. In the case of U7A G27U, the self-cleavage is reported as 0.32. In the case of U7C C43A, the self-cleavage is reported as 0.309. U7C C43U showed a self-cleavage of 0.25. For U7C C43G, the self-cleavage was 0.346. With U7A C15G the self-cleavage was 0.987. With U7A C15A the self-cleavage was 0.852. For U7A C15U, the self-cleavage was 1.04. U7A U19A showed a self-cleavage of 0.377. U7A U19G gave a self-cleavage of 0.25. With U7A U19C the self-cleavage was 0.402. Work on U7C C30G yielded a self-cleavage of 1.09. Variant U7C C30A has a self-cleavage of 0.736. For U7C C30U, the self-cleavage was 0.842. Variant U7C A44G has a self-cleavage of 1.13. Work on U7C A44U yielded a self-cleavage of 0.582. Work on U7C A44C yielded a self-cleavage of 0.631. Variant U7A C38G has a self-cleavage of 0.431. U7A C38U gave a self-cleavage of 1.27. Work on U7A C38A yielded a self-cleavage of 0.49.
